In the supplement of paper PMC10724198:
± gives the standard deviation of the averaged measurements.

Columns and labels:
[1] = test system: Saccharomyces cerevisiae; test: protein stability index of tFT-peptide fusion (C-terminal peptide) (PSI (0-1 scale)); higher = more stable (slower turnover); conditions: genetic background: wild type; temperature: 30 C
[2] = test system: Saccharomyces cerevisiae; test: as above
Protocol: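 MPS profiling in S. cerevisiae of the tFT-X12 degron library: putative degron peptides plus stable controls, 12 aa, fused to the C-terminus of a sfGFP-mCherry timer. Cells are FACS-sorted into 8 mCherry/sfGFP bins and deep-sequenced. PSI runs from 0 (unstable) to 1 (stable). Backgrounds are wild type, das1Δ and doa10Δ at 30 °C, and wild type, das1Δ, cdc34-1 and cdc53-1 at 37 °C; 2-3 technical replicates each.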

[3] = genetic background: cdc34-1, temperature: 37 C
[4] = genetic background: cdc53-1, temperature: 37 C
[5] = genetic background: das1 deletion, temperature: 30 C
[6] = genetic background: das1 deletion, temperature: 37 C
[7] = genetic background: doa10 deletion, temperature: 30 C
[8] = genetic background: wild type, temperature: 30 C
[9] = genetic background: wild type, temperature: 37 C
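Further: PSI is a weighted mean of sequencing reads over stability bins, variants kept only with over 10 reads, mCherry proximal and sfGFP distal, peptide attached via GGGS linker.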

Row | Sequence | protein stability index [1] | protein stability index [2, 3] | protein stability index [2, 4] | protein stability index [2, 5] | protein stability index [2, 6] | protein stability index [2, 7] | protein stability index [2, 8] | protein stability index [2, 9]
1 | TVRVVMLRLLFT | 0.418 ± 0.021 | 0.452 ± 0.027 | 0.52 ± 0.025 | 0.346 ± 0.035 | 0.528 ± 0.0076 | 0.309 ± 0.02 | 0.33 ± 0.024 | 0.493 ± 0.018
2 | VAFLWVAFCFSG | 0.276 ± 0.046 | 0.205 ± 0.0023 | 0.355 ± 0.044 | 0.224 ± 0.03 | 0.3883 ± 0.0035 | 0.178 ± 0.019 | 0.203 ± 0.016 | 0.366 ± 0.021
3 | VAIMSIWLVYML | 0.454 ± 0.0058 | 0.349 ± 0.0086 | 0.465 ± 0.0057 | 0.341 ± 0.031 | 0.497 ± 0.016 | 0.331 ± 0.0076 | 0.333 ± 0.0079 | 0.4919 ± 0.0028
4 | VALAVRVVVCGA | 0.142 ± 0.041 | 0.0316 ± 0.014 | 0.0354 ± 0.0067 | 0.122 ± 0.039 | 0.106 ± 0.0073 | 0.0887 ± 0.0097 | 0.108 ± 0.028 | 0.0779 ± 0.01
5 | VAWCVWCWWWAV | 0.131 ± 0.047 | 0.188 ± 0.0033 | 0.322 ± 0.0061 | 0.209 ± 0.021 | 0.351 ± 0.0049 | 0.06 ± 0.016 | 0.0674 ± 0.015 | 0.0852 ± 0.013
6 | VCLFWLFLWRIL | 0.266 ± 0.0063 | 0.208 ± 0.018 | 0.167 ± 0.027 | 0.3 ± 0.027 | 0.374 ± 0.013 | 0.217 ± 0.014 | 0.182 ± 0.0051 | 0.241 ± 0.016
7 | VCLWVEVLIVLG | 0.209 ± 0.011 | 0.0839 ± 0.023 | 0.205 ± 0.056 | 0.136 ± 0.03 | 0.25 ± 0.014 | 0.106 ± 0.031 | 0.129 ± 0.021 | 0.183 ± 0.0078
8 | VCPWGYCSEWGF | 0.759 ± 0.013 | 0.772 ± 0.047 | 0.82244 ± 0.00034 | 0.697 ± 0.023 | 0.8015 ± 0.0031 | 0.692 ± 0.043 | 0.687 ± 0.014 | 0.7887 ± 0.006
9 | VFCSVGVSLFFG | 0.411 ± 0.021 | 0.335 ± 0.014 | 0.496 ± 0.027 | 0.289 ± 0.04 | 0.5138 ± 0.0017 | 0.258 ± 0.015 | 0.284 ± 0.023 | 0.5118 ± 0.0026
